Laboratory results from US20240270821A1, “GIP/GLP1/GCG TRI-RECEPTOR AGONISTS AND USES THEREOF” (priority 2023, published 2024).

How the values were obtained:
Assay in all cases: cell-based or functional assay
hGLP-1R = hGLP-1R (Homo sapiens, UniProt P43220)
[1] = biological target: T1, human GIP receptor (human) (UniProt P48546)
T1 sequence (looked up): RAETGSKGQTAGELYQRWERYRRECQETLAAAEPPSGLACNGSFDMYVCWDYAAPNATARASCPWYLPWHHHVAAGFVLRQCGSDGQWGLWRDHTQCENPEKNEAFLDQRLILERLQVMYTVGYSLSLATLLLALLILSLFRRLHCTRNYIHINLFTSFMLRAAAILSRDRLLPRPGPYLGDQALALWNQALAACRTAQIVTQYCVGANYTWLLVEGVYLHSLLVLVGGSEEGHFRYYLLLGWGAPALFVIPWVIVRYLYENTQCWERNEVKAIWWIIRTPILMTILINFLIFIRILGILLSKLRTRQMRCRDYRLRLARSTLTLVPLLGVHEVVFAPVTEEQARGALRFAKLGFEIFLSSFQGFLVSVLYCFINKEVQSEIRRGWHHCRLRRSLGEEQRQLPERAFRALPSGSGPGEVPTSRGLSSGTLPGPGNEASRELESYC

[2] = biological target: human glucagon receptor (human) (UniProt P47871)
Chain of human glucagon receptor (human) (P47871 26-477): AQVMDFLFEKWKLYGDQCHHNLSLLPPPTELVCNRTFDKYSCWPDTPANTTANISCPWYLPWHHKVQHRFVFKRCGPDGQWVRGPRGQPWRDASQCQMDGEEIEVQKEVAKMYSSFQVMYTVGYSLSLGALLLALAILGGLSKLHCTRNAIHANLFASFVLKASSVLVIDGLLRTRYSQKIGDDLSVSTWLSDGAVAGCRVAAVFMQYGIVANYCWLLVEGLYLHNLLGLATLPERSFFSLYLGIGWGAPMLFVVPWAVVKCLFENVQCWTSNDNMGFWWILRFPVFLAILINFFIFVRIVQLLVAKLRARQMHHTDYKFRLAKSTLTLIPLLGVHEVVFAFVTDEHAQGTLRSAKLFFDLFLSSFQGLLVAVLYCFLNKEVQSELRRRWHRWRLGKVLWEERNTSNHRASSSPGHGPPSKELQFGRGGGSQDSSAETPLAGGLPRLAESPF

Chain of hGLP-1R (P43220 24-463): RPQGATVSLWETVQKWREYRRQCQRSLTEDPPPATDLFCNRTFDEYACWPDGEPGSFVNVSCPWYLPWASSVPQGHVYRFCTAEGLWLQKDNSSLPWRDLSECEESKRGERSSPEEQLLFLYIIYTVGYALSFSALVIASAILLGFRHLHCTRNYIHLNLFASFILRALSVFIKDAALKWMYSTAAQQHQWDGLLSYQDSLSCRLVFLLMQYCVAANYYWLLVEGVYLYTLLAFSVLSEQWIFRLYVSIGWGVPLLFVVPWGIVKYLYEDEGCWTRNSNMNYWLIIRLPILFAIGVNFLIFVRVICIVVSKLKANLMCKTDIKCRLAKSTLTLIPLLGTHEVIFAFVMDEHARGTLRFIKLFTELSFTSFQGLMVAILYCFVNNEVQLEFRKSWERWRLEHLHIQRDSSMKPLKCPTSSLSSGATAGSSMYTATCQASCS

B1: Example 396 (peptide)
chain: YXQGTXTSDYSIXLDKKAQXAFIEYLEEGGPSSGAPPPE
modifications: synthetic construct; SITE 2: note = 2-Aminoisobutyric Acid; SITE 6: note = alpha-methyl-L-phenylalanine; SITE 13: note = alpha-methyl-leucine; SITE 17: note = Lysine is chemically modified through conjugation of the epsilon-amino group of the Lysine side chain with (2-[2-(2-Amino-ethoxy)-ethoxy]-ace)
B1 was tested, and the Relative cAMP EC50 (hGLP-1R) was 0.293 nM, the cAMP Rel EC50, nM (1% HSA) (hGLP-1R) was 38.2 nM and the Relative cAMP EC50 [1] was 0.024 nM. The cAMP Rel EC50, nM (1% HSA) [1] was 9.5 nM, the Relative cAMP EC50 [2] was 4.99 nM and the cAMP Rel EC50, nM (1% HSA) [2] was 468 nM.

B2: Example 395 (peptide)
chain: YXQGTXTSDYSIXLDKKAQXAFIEYLEEGGPSSGAPPPSEG
modifications: synthetic construct; SITE 2: note = 2-Aminoisobutyric Acid; SITE 6: note = alpha-methyl-L-phenylalanine; SITE 13: note = alpha-methyl-leucine; SITE 17: note = Lysine is chemically modified through conjugation of the epsilon-amino group of the Lysine side chain with (2-[2-(2-Amino-ethoxy)-ethoxy]-ace)
B2 showed a Relative cAMP EC50 (hGLP-1R) of 0.349 nM, a cAMP Rel EC50, nM (1% HSA) (hGLP-1R) of 34.7 nM and a Relative cAMP EC50 [1] of 0.0248 nM. The cAMP Rel EC50, nM (1% HSA) [1] was 6.69 nM, the Relative cAMP EC50 [2] was 5.55 nM and the cAMP Rel EC50, nM (1% HSA) [2] was 1190 nM.

B3: Example 404 (peptide)
chain: YXQGTXTSDYSIXLDXKAQXAFIEYLLEGGPSSGAPPPSEG
modifications: synthetic construct; SITE 2: note = 2-Aminoisobutyric Acid; SITE 6: note = alpha-methyl-2-fluoro-L-phenylalanine; SITE 13: note = alpha-methyl-leucine; SITE 16: note = L-ornithine; SITE 17: note = Lysine is chemically modified through conjugation of the epsilon-amino group of the Lysine side chain w
With B3 the Relative cAMP EC50 (hGLP-1R) was 0.217 nM, the cAMP Rel EC50, nM (1% HSA) (hGLP-1R) was 32.2 nM and the Relative cAMP EC50 [1] was 0.0102 nM. For the same binder, the cAMP Rel EC50, nM (1% HSA) [1] was 2.03 nM, the Relative cAMP EC50 [2] was 4.1 nM and the cAMP Rel EC50, nM (1% HSA) [2] was 735 nM.

B4: Example 399 (peptide)
chain: YXQGTXTSDYSILLDKKAQXAFIEYLEEGGPSSGAPPPEEG
modifications: synthetic construct; SITE 2: note = 2-Aminoisobutyric Acid; SITE 6: note = alpha-methyl-2-fluoro-L-phenylalanine; SITE 17: note = Lysine is chemically modified through conjugation of the epsilon-amino group of the Lysine side chain with (2-[2-(2-Amino-ethoxy)-ethoxy]-acetyl)-(gamma-Glu)-CO-(CH2) 16-
B4 showed a Relative cAMP EC50 (hGLP-1R) of 0.302 nM, a cAMP Rel EC50, nM (1% HSA) (hGLP-1R) of 42.8 nM and a Relative cAMP EC50 [1] of 0.0413 nM. It also gave a cAMP Rel EC50, nM (1% HSA) [1] of 19.6 nM, a Relative cAMP EC50 [2] of 1.51 nM and a cAMP Rel EC50, nM (1% HSA) [2] of 560 nM.

B5: Example 398 (peptide)
chain: YXQGTXTSDYSILLDKKAQXAFIEYLEEGGPSSGAPPPSEG
modifications: not fully specified; synthetic construct; SITE 2: note = 2-Aminoisobutyric Acid; SITE 6: note = alpha-methyl-2-fluoro-L-phenylalanine; SITE 17: note = Lysine is chemically modified through conjugation of the epsilon-amino group of the Lysine side chain with (2-[2-(2-Amino-ethoxy)-ethoxy]-acetyl)-(gamma-Glu)-CO-(CH2) 16-
B5 was tested, and the Relative cAMP EC50 (hGLP-1R) was 0.186 nM, the cAMP Rel EC50, nM (1% HSA) (hGLP-1R) was 42.2 nM and the Relative cAMP EC50 [1] was 0.0318 nM. The cAMP Rel EC50, nM (1% HSA) [1] was 12.4 nM, the Relative cAMP EC50 [2] was 2.16 nM and the cAMP Rel EC50, nM (1% HSA) [2] was 375 nM.

B6: Example 401 (peptide)
chain: YXQGTXTSDXXIXLDXKAQXXFIEXLIEGGPSSGEPPPSEG
modifications: synthetic construct; SITE 2: note = 2-Aminoisobutyric Acid; SITE 6: note = alpha-methyl-2-fluoro-L-phenylalanine; SITE 10: note = 3-(4-Pyridyl)-L-alanine; SITE 11: note = alpha-methyl-L-serine; SITE 13: note = alpha-methyl-leucine; SITE 16: note = L-ornithine; SITE 17: note = Lysine is chemically mo
With B6 the Relative cAMP EC50 (hGLP-1R) was 0.213 nM, the cAMP Rel EC50, nM (1% HSA) (hGLP-1R) was 12 nM and the Relative cAMP EC50 [1] was 0.0183 nM. It also gave a cAMP Rel EC50, nM (1% HSA) [1] of 1.71 nM, a Relative cAMP EC50 [2] of 1.99 nM and a cAMP Rel EC50, nM (1% HSA) [2] of 111 nM.

B7: Example 403 (peptide)
chain: YXQGTXTSDYXIXLDXKAQXXFIEXLEEGGPSSGEPPPEEG
modifications: synthetic construct; SITE 2: note = 2-Aminoisobutyric Acid; SITE 6: note = alpha-methyl-2-fluoro-L-phenylalanine; SITE 11: note = alpha-methyl-L-serine; SITE 13: note = alpha-methyl-leucine; SITE 16: note = L-ornithine; SITE 17: note = Lysine is chemically modified through conjugation of the epsilon
In the case of B7, the Relative cAMP EC50 (hGLP-1R) is reported as 0.396 nM, the cAMP Rel EC50, nM (1% HSA) (hGLP-1R) is reported as 70 nM and the Relative cAMP EC50 [1] is reported as 0.0827 nM. It also gave a cAMP Rel EC50, nM (1% HSA) [1] of 36.9 nM, a Relative cAMP EC50 [2] of 1.59 nM and a cAMP Rel EC50, nM (1% HSA) [2] of 527 nM.

B8: Example 389 (peptide)
chain: YXQGTXTSDYXSXLDXKAQXXFIEXLLEGGPSSGEPPPE
modifications: synthetic construct; SITE 2: note = 2-Aminoisobutyric Acid; SITE 6: note = alpha-methyl-L-phenylalanine; SITE 11: note = alpha-methyl-L-serine; SITE 13: note = alpha-methyl-leucine; SITE 16: note = L-ornithine; SITE 17: note = Lysine is chemically modified through conjugation of the epsilon-amino gr
B8 showed a Relative cAMP EC50 (hGLP-1R) of 0.134 nM, a cAMP Rel EC50, nM (1% HSA) (hGLP-1R) of 18.9 nM and a Relative cAMP EC50 [1] of 0.0354 nM. For the same binder, the cAMP Rel EC50, nM (1% HSA) [1] was 18.3 nM, the Relative cAMP EC50 [2] was 4.03 nM and the cAMP Rel EC50, nM (1% HSA) [2] was 889 nM.

B9: Example 390 (peptide)
chain: YXQGTXTSDYXSLLDXKAQXXFIEXLLEGGPSSGEPPPE
modifications: synthetic construct; SITE 2: note = 2-Aminoisobutyric Acid; SITE 6: note = alpha-methyl-L-phenylalanine; SITE 11: note = alpha-methyl-L-serine; SITE 16: note = L-ornithine; SITE 17: note = Lysine is chemically modified through conjugation of the epsilon-amino group of the Lysine side chain with (2-[
Work on B9 yielded a Relative cAMP EC50 (hGLP-1R) of 0.134 nM, a cAMP Rel EC50, nM (1% HSA) (hGLP-1R) of 19.6 nM and a Relative cAMP EC50 [1] of 0.122 nM. For the same binder, the cAMP Rel EC50, nM (1% HSA) [1] was 37.8 nM, the Relative cAMP EC50 [2] was 3.08 nM and the cAMP Rel EC50, nM (1% HSA) [2] was 549 nM.

B10: Example 402 (peptide)
chain: YXQGTXTSDYXIXLDXKAQXXFIEXLEEGGPSSGEPPPE
modifications: synthetic construct; SITE 2: note = 2-Aminoisobutyric Acid; SITE 6: note = alpha-methyl-2-fluoro-L-phenylalanine; SITE 11: note = alpha-methyl-L-serine; SITE 13: note = alpha-methyl-leucine; SITE 16: note = L-ornithine; SITE 17: note = Lysine is chemically modified through conjugation of the epsilon
With B10 the Relative cAMP EC50 (hGLP-1R) was 0.725 nM, the cAMP Rel EC50, nM (1% HSA) (hGLP-1R) was 86.6 nM and the Relative cAMP EC50 [1] was 0.123 nM. The cAMP Rel EC50, nM (1% HSA) [1] was 44.9 nM, the Relative cAMP EC50 [2] was 5.66 nM and the cAMP Rel EC50, nM (1% HSA) [2] was 1030 nM.

B11: Example 391 (peptide)
chain: YXQGTXTSDYXIXLDXKAQXXFIEYLLEGGPSSGEPPPE
modifications: synthetic construct; SITE 2: note = 2-Aminoisobutyric Acid; SITE 6: note = alpha-methyl-L-phenylalanine; SITE 11: note = alpha-methyl-L-serine; SITE 13: note = alpha-methyl-leucine; SITE 16: note = L-ornithine; SITE 17: note = Lysine is chemically modified through conjugation of the epsilon-amino gr
Binder B11 has a Relative cAMP EC50 (hGLP-1R) of 0.199 nM, a cAMP Rel EC50, nM (1% HSA) (hGLP-1R) of 34.4 nM and a Relative cAMP EC50 [1] of 0.0298 nM. For the same binder, the cAMP Rel EC50, nM (1% HSA) [1] was 11.5 nM, the Relative cAMP EC50 [2] was 3.04 nM and the cAMP Rel EC50, nM (1% HSA) [2] was 808 nM.
